Assay: soluble on expression in E. coli; label from the status in PepcDB or PDB records

Sequence | soluble on expression in E. coli
MSDIKHEKKLANMDTPGETTKSFENKLDEEIPDIEESDFINSPPFSDEIFSPEDSKQVEISELSKQAYSLLKGNSITEAINVFKKILELDPTNNYALVGLGDAERKNNKFNEAIKFYKQCLEHHPSNNYALFGLADCYKSMNQFPRAIAIWEEYLKFDDKNITVLTRVADAYRKTKEFEKAEKLYQKVLEKSPKNAYALIGLGHLNYDFKKYREALVYWEKVMESSGELVDIRILTSIGNCYRKMKLFDRGVYYFERALERSPDNFYGLFGLADCYRGLNQQYNSIVYWKKILELDPNNKVILTRIGDAYRSMNDFEKAKESYQKALDIDFDSYAMLGLAILCKLQQKYDQAITTLTHLKDTGDTNYNYRVYLELAQCYIEKKEKQKAIETLIDFQKLGIKNQTVSDLLFELTKNDH | not soluble
MCEIFIRANQRSYSVQARSLRLHGVATSVRLEQLFWDVLEEIAARDGMRVTQLIERLYDELVQYRGEAANFTSFLRVCCLRYQVLQAEGRIPADATVPIRSLDAQAVLRGLPANLYDSRPLG | soluble
MGHHHHHHSHEVIKGSWQPVGDLLIDSLQDHLEKVKALRGEIAPLKENVSHVNDLARQLTTLGIQLSPYNLSTLEDLNTRWKLLQVAVEDRVRQLHEAHRDFGPASQHFLSTSVQGPWERAISPNKVPYYINHETQTTCWDHPKMTELYQSLADLNNVRFSAYRTAMKLRRLQKALCLDLLSLSAACDALDQHNLKQNDQPMDILQIINCLTTIYDRLEQEHNNLVNVPLCVDMCLNWLLNVYDTGRTGRIRVLSFKTGIISLCKAHLEDKYRYLFKQVASSTGFCDQRRLGLLLHDSIQIPRQLGEVASFGGSNIEPSVRSCFQFANNKPEIEAALFLDWMRLEPQSMVWLPVLHRVAAAETAKHQAKCNICKECPIIGFRYRSLKHFNYDICQSCFFSGRVAKGHKMHYPMVEYCTPTTSGEDVRDFAKVLKNKFRTKRYFAKHPRMGYLPVQTVLEGDNMETPVTLINFWPVDSAPAS | not soluble
MFFSEARARSRTWEASPSEHRKWVEVFKACDEDHKGYLSREDFKTAVVMLFGYKPSKIEVDSVMSSINPNTSGILLEGFLNIVRKKKEAQRYRNEVRHIFTAFDTYYRGFLTLEDFKKAFRQVAPKLPERTVLEVFREVDRDSDGHVSFRDFEYALNYGQKEA | not soluble
MEEPQITVGILSGKEIEFSFPESFTTPDGTKVSGAQKAVYQKEKIYWSGKEYDELIFYPQPNAGIFFELKDVTIGINFHWERKEVQRFQGALKIIVEGETLTAINVISIEDYLTSVISSEMSATASLELLKAHAVISRSWLINKLRVENEKWKATIQPDSAANSPHSTLHSQLIKWYDHEAHTHFDVCADDHCQRYQGITRASTPQAIEAVSATRGEVLMYEGKICDARFSKCCGGAMEEFQNCWENVRHPYLTGKRDYIPESHASDSEKQITGPAIQLPDLTQEEEADRWIRTSPDAFCNTQDKKILSQVLNNYDQETTDFYRWKISYSQQELAELIHQRSGIDFGEIIDLIPVERGTSGRLIRLKIVGTLRTLTIGKELEIRRTLSPSHLYSSAFLVDKEKGEEGNVPTRFTLTGAGWGHGVGLCQIGAAVMGERGYYYKDILAHYYPGSRLEKQYE | not soluble
MDEIWFAGIDLGGTTIKLAFINQYGEIQHKWEVPTDKTGDTITVTIAKTIDSKLDELQKPKHIIKYIGMGAPGPVDMAAGVVYETVNLGWKNYALKNHLETETGIPAVIENDANIAALGEMWKGAGDGAKDVILVTLGTGVGGGIIANGEILHGINGAGGEIGHICSIPEGGAPCNCGKTGCIETIASATGIVRIAKGKIANAKKTTRLKATEQLSARDVFEAAGENDEIALEVVDYVAKHLGLVLGNLASSLNPSKIVLGGGVSRAGELLRSKVEKTFRKCAFPRAAQAADISIAALGNDAGVIGGAWIAKNEWLKHQNCLEHHHHHH | soluble
MGSDKIHHHHHHMNYLEAEDLTTGYGRQVISEALNCSFEAGTITSIIGPNGCGKSTLLKTLARILPAEKGKVFIKNQELQHFSSKEVAQELAILSQTPENTIDLSVFDLVSFGRYPYQSGWKSVTTEDQEYIQWALELTGLTELARESVAILSGGQRQRVWIAMALVQDTDILILDEPTTYLDPAHQLEILNVLKRINQEHQKTIVMTIHDINLASRFSDRVIAMKEGKIINEGTPQEVITVTGLADVFAIQAEISYHSQTQRPLVLSYELMEMELDG | not soluble
MNFLKKEPFKIFSMIYLLLDTITNRAGTERAVINLANNLHANGHRVSLVSVCTKEGEPSFQVEKGIEVHHLGIRLYGNALARKTVYFKAYRRIKALYKKREPVLLIGTNIFINTILSQISNRGRIFTIGCEHISYDIARPITKRIRGFLYSGLDAVVALTKRDQQSFEAILRGRSKAYVIPNQVSFTTVQRDATTHKQMLAIGRLTYQKGFEFMIEDASRVLRERPDWKLIIVGDGENESMLRKEIASRNMESQIEIHPSTPEIRKYYESSAIYLMTSRFEGLPMVLLEAEAYALPIISYDCPTGPRELIENGRNGFLVPMEAHEDFADKLRLLMDDETLRKKMGQESELMVKSYSPANIYECWKKLFVEIGYMN | soluble
AGHDGSQLAARLDLPQGPVLATALFAHCFTCSKDIPAARRIAARLAAMGIAVLRFDFTGLGHSEGEFANTTFTSNVGDLAAAARYLAGRDMAPALLIGHSLGGAAVLRARAQIASVRAVVTIGAPADPGHVAHHFETALPRIQAEGAAEVCLGGRPFRIGRDFVEDIAASALQPAIADLRAALLVLHAPRDETVSIDNASQIFMAAKHPKSFVTLDDADHLISRARDAEYAAEVIAAWAGRYVD | not soluble
MSYLVVTIKVILITGMPGSGKSEFAKLLKERGAKVIVMSDVVRKRYSIEAKPGERLMDFAKRLREIYGDGVVARLCVEELGTSNHDLVVFDGVRSLAEVEEFKRLLGDSVYIVAVHSPPKIRYKRMIERLRSDDSKEISELIRRDREELKLGIGEVIAMADYIITNDSNYEEFKRRCEEVTDRVLKNG | not soluble
MTASSDPHVIFVGSGINSLVSAALLATRGKRVLVLERNDRLGGCIRTEELFPGYHHEVMSSWYPLFVGSPGYAELKPALEQAGLAFLCPDYTTGLVWPDGRGLALKQDLNDAVQRLEALAPGDGAALGAMAARLFGPDAALTFGLLGQNPYGWAMLKLLFGQWRQRGTDGLAAFAADALETFRRWSERTLRSDLARALIAPWVLHSGLGPDDAGSALIGKLTFASVVSGGMPVVKGGGSRLVEALARVIEQHGGTLMTGTPVEQVLTEGQGRRRRATGVAVTGGRRLRAQQAVVCNVTPQQLYGRLLPEMPQPLRERAEGYRYGRGDMQIHFALNAPPAWREAELCKVPLVHLTESLEQVCASVTQANNGLLPSRPTLGIGQPTVADPSRAPAGGWILWIQMQELPTRLKGDAAGEIPVPADGRWNEAVREAFADRVQARLERVMPGLAERIVGRRAYSPADLEVLNCNLVGGDPYSGVCSPDQFFWLRPFAGSQGARAHRTPLANVFHIGASTHPGPGLGAGSGFMVAQHLSPR | not soluble
MSLTPSVSTKELEGGLLIVDEMSMVDTWLANTLFKAIPTNMQVILVGDKDQLPSVGPGQVLHDLLEIEQIPKMELNQIYRQGDGSSIIPLAHEIKEGRLPKDFTKNQKDRSYFRSDAYQIEPLISKIVEKAKNKGFRAQDIQVLAPMYRGPAGIDALNKMMQEIFNPGKPGKKEVHWNDTVYRIGDKVLQLVNTPELNVFNGDMGEITGIILAKDSEDKVDELVIQFDANEVTYKRNEWNKITLSYCCSIHKSQGSEFKMVILPMVHQYQRMLQRNLLYTAVTRSKELLILLGEEQAYVTCVANESASRMTTLKSRIMDNDKMNEGHHHHHH | not soluble
MGIFRIQAYFFALIIALFFVACDSGENFKALNSDKTYNFAYNGFEKSLKLNDKAQNFALVFFTKDCGVCKEQIPILQNLAKNYDFNIFVVLGDANDANDAKAWADEKGLSNLAMFYEKRAAKYLSSAIGEIYGVPVLSFFKEGKMDEKFIGLTPYSILEKEIKKVKS | not soluble
MGSDKIHHHHHHMQVEQRTLNTAAHPFQITAYWLDQISDFETAVDYPIMIICPGGGFTYHSGREEAPIATRMMAAGMHTVVLNYQLIVGDQSVYPWALQQLGATIDWITTQASAHHVDCQRIILAGFSAGGHVVATYNGVATQPELRTRYHLDHYQGQHAAIILGYPVIDLTAGFPTTSAARNQITTDARLWAAQRLVTPASKPAFVWQTATDESVPPINSLKYVQAMLQHQVATAYHLFGSGIHGLALANHVTQKPGKDKYLNDQAAIWPQLALRWLQEQGLLAGNY | not soluble
MNVHQRYAMGDSLAAKHGLWSEEQIDAAARVRRIAEEQGLETIRFSFPDQHGILRGKTLVASEALNCLDNGATITTTMLAKDTSHKTVFPVFQAGGGFGMSEMQGGADVVMLPDPTTFRVLPWAPTTGWVLCDLYFADGRPVQFATRNIYRAALQKLAARGYDYKAGLEVEFHVFKVVDSKMRPEHAGQPGEPPEVSLLSHGYQYLTEQRYDQMEPVLELIRRDVVALGLPLRSIEVEFGPSQCEFTFQPTVGLLPADLMVLFRAAVKQICRRHGYHATFMCRPRIPNVVSSGWHLHQSVVARDGGRNAFMSDSDVLSDFGRHYLAGLMTHARAATVFTTPTINGYKRYRSYSLAPDRAIWGRDNRGVMLRVLGGAGDKATRIENRVGEPAANPYLYMASQILSGLDGVDRALDPGPSADTPYETKADLLPKSLREAIFALRDDPFFRTALGDEFVDYYTFIKNAEIERFQAEVTEWEQREYFEMF | soluble
SGMYKIILNQTARYFAKFAPDNEQNILWGLPLQYGWQYRTGRLADPTRRTNCGYESGDHMCISVDSWWADLNYFLSSLPFLAAVDSGVMGISSDQVRLLPPPKNERKFCYDVSSCRSSFPETMNKWNTFYQYLQSPFSKFDDLLKYLWAAHTSTLADNIKSFEDRYDYYSKAEAHFERSWVLAVDHLAAVLFPTTLIRSYKFQKGMPPRILLNTDVAPFISDFTAFQNVVLVLLNMLDNVDKSIGYLCTEKSNVYRDHSESSSRSYGNNS | not soluble
SLDGILDHTMIRVEDLDASLEWYTTHLNYEEKGRWEAETFTNVYLGPEDAGDAAARLELTYNHDGRSYTMGDAWGHIAVRVPDVEAAYDELMQSGVEDYRPPAENPGYAFVTDPDGHEVEIVERDYGTKWSLDHTMLRVEDVNAALGYWIRTFEYEPTGRWEADSFANYFVSPQDAPAEAMDIELTYNYDGRSYTMGDAWGHVAVRCADLQSAWETLQEREAPDYRDPESCDNRYAFTKAPDGHEIEILPTEEG | not soluble
MGSDKIHHHHHHFEEVNTDPDSPTDVPTTNLLAYSLYYTSYRLYDRWFAMDEPMTFCGYASKMTYIDESRYNFRTGVQDTNWEYLYRILNNLKDIEKRATFNETPNMLNVSKVMQVHLMQVATDRWRDVPYTDAAKMTDGILQPKYDKQEDIYPGLLATLKEAADGFADGGSDDLGEGDLLFGGDIEKWQRYCNSMRLRLAMRISEVSPALAKETVEEVMGNPTKYPIMESNDDNAFFWWIGTDPNYYEPMADGYRTRKTEYCAADVIVDHMNTREDPRRSSYFQPTKESVEAGEPKYVGYTIGAKANAVASKYSIWGARFFTDLAGFSPYMRVAEPWFCVAEASMLGWNTGISAEDAYNKAVTYSMEENSVSAEDIADYLANAGKFTNDKKQIYYEEWVAMFKQGMEGWSLYRRTGVPDNLYPAPGRPANYSNHNVPPFRSPYPDKERNLNNANCAPFDAEVVDNLWGKQMWWDTRTGVH | not soluble

From the DeepSol protein solubility set
